No end group written: not given here. A value given as a limit tells only on which side of the number the result lay.

The assay deals with 40 non-kinase enzyme assays, including phosphatases and proteases. Put plainly: cell-based or functional assay. The settings on record: scale: % inhibition of activity at 100 µM MMI-0100.

B1: MMI-0100 peptide (…; SEQ ID NO: 1) (peptide)
peptide: YARAAARQARAKALARQLGVAA
modifications: also: acetate salt
B1: the inhibition of activity in enzyme assays in the presence and absence of 100 µM MMI-0100 is less than 50.

These data come from patent publication US20150299264A1.
